This is an account of results in patent US20170114108A1.

This assay addresses H4 tail (residues 1-30) of the H4ac indicator (UniProt P62805). The assay can be described thus: cell-based or functional assay.

Regarding “TATA binding protein (TBP)-associated factor II (TAFII) bromodomain”, the percent of cells discriminated from autofluorescence (FACS), H4ac indicator, 1 µM SAHA was 5 % of cells; the percent of cells discriminated from autofluorescence (FACS), H4ac indicator, 2.5 µM SAHA is 20 % of cells; the percent of cells discriminated from autofluorescence (FACS), H4ac indicator, 7.5 µM SAHA is 40 % of cells; the percent of cells discriminated from autofluorescence (FACS), H4ac indicator, 10 µM SAHA was 45 % of cells.
